In patent US8563700B2, “Synergistic effects” (ImmunoGen, Inc., priority 2008, dated 2013):

Legend:
Format in all cases: in vivo
[1] = tested on: OPM2 human multiple myeloma cells; experiment: huN901-DM1 and bortezomib in established subcutaneous OPM2 multiple myeloma xenografts; conditions: SCID mice
Source text: (§1) Mice were inoculated with human multiple myeloma tumor cell lines and allowed to become established (average tumor size of about 100 mm^3) prior to treatment. Conjugate dosing is described based on DM1 concentration. Efficacy is reported as both the % of tumor growth for treated vs. control (% T/C) and log cell kill (LCK) determined from the tumor doubling time and the tumor growth delay due to the treatment.
The anti-tumor effect of a combination of huN901-DM1 and bortezomib (Velcade, Millennium Pharmaceuticals) was evaluated in an established subcutaneous xenograft model of multiple myeloma. SCID mice (36 animals) were inoculated with OPM2 human multiple myeloma cells (1×10^7 cells/animal) injected subcutaneously into the right shoulder of the mice. […] Two groups of mice were treated with the single agent huN901-DM1 at DM1 doses of 100 μg/kg and 200 μg/kg, respectively (day 12 post tumor cell inoculation) administered intravenously. A third group of mice was treated with the single agent bortezomib at a dose of 1 mg/kg (days 13 and 16 post tumor cell inoculation), administered intravenously. Two groups were treated with combinations of huN901-DM1 (100 μg/kg or 200 μg/kg) plus bortezomib using the same doses, schedules and administration routes used for single agent treated groups. A control group of animals received PBS administered intravenously (day 12 post tumor cell inoculation). Tumor growth was monitored by measuring tumor size twice per week. Tumor size was calculated with the formula: length×width×height×½.

[2] = tested on: H929 human multiple myeloma cells; experiment: huN901-DM1 and bortezomib in H929 multiple myeloma large tumor xenografts; conditions: for activity according to NCI standards: huN901-DM1 50 μg/kg, bortezomib 0.5 mg/kg, as single agents or combined
Protocol: as §1
The anti-tumor effect of a combination of huN901-DM1 and bortezomib was evaluated in an established subcutaneous xenograft model of multiple myeloma. SCID mice (54 animals) were inoculated with H929 human multiple myeloma cells (1×10^7 cells/animal) injected subcutaneously into the right shoulder of the mice. […] Two groups of mice were treated with the single agent huN901-DM1 at DM1 doses of 50 μg/kg and 100 μg/kg, respectively (day 34 post tumor cell inoculation) administered intravenously. Two groups of mice were treated with the single agent bortezomib at a 0.5 mg/kg low dose and 1 mg/kg high dose (days 35 and 38 post tumor cell inoculation) administered intravenously. Four combination groups were evaluated, with combinations of each dose of huN901-DM1 plus low- or high-dose bortezomib using the same schedules used for single agent treated groups. A control group of animals received PBS administered intravenously (day 34 post tumor cell inoculation). Tumor growth was monitored by measuring tumor size twice per week. Tumor size was calculated with the formula: length×width×height×½.

[3] = tested on: MOLP-8 human multiple myeloma cells; experiment: huN901-DM1 and thalidomide in established subcutaneous MOLP-8 multiple myeloma xenografts; conditions: SCID mice; huN901-DM1 100 μg/kg, thalidomide 200 mg/kg, as single agents or combined
Source text: as §1
(§2) Tumor growth was monitored by measuring tumor size twice per week. Tumor size was calculated with the formula: length×width×height×½.

[4] = tested on: MOLP-8 human multiple myeloma cells; conditions: Balb/c nude mice; huN901-DM1 200 μg/kg DM1 i.v. single injection day 22; melphalan 12 mg/kg i.p. single injection day 23; combination same doses
Source text: as §1, §2

[5] = tested on: OPM2 human multiple myeloma cells; experiment: huN901-DM1 and lenalidomide in established subcutaneous OPM2 multiple myeloma xenografts; conditions: combination same doses; for LCK / T/C: SCID mice, lenalidomide 100 mg/kg i.p. days 16-20, 23-27; for LCK: huN901-DM1 200 μg/kg i.v. day 16; for T/C: huN901-DM1 200 μg/kg i.v. single injection day 16
Protocol: as §1
The anti-tumor effect of a combination of huN901-DM1 and lenalidomide was evaluated in an established subcutaneous xenograft model of multiple myeloma. SCID mice (20 animals) were inoculated with OPM2 human multiple myeloma cells (1×10^7 cells/animal) injected subcutaneously into the right shoulder of the mice. When the tumors reached about 130 mm^3 in size (16 days after tumor cell inoculation), the mice were randomly divided into four groups (5 animals per group). One group of mice was treated with the single agent huN901-DM1 (200 μg/kg, day 16 post tumor cell inoculation) administered intravenously. […] A third group was treated with a combination of huN901-DM1 plus lenalidomide using the same doses, schedules and administration routes used for single agent treated groups. A control group of animals received PBS administered intravenously (day 16 post tumor cell inoculation). Tumor growth was monitored by measuring tumor size twice per week. Tumor size was calculated with the formula: length×width×height×½.

[6] = tested on: MOLP-8 human multiple myeloma cells; experiment: Triple combination huN901-DM1, lenalidomide plus low-dose dexamethasone in MOLP-8 xenografts
Protocol: Lenalidomide (100 mg/kg, qd×5×2) was administered at days 1-5 and 8-12. […]
as §1
The anti-tumor effect of a triple-combination of huN901-DM1 and lenalidomide plus low-dose dexamethasone was evaluated in an established subcutaneous xenograft model of multiple myeloma. SCID mice were inoculated with MOLP-8 human multiple myeloma cells (1.5×10^7 cells/animal) injected subcutaneously into the right shoulder of the mice. […] Treatments were initiated on day 13 post inoculation, indicated as day 1 of treatment. […] A second group of mice was treated with the combination of lenalidomide/low-dose dexamethasone (lenalidomide at 100 mg/kg, administered as a suspension in 1% carboxymethylcellulose/PBS by intraperitoneal injection on days 1-5, 8-12; dexamethasone at 1.5 mg/kg, administered by subcutaneous injection on days 1 and 8). A third group was treated with the triple-combination of huN901-DM1 plus lenalidomide/dexamethasone using the same doses, schedules and administration routes used for individual treatment groups. A control group of animals received PBS administered intravenously (days 1 and 8). Tumor growth was monitored by measuring tumor size twice per week. Tumor size was calculated with the formula: length×width×height×½.

[7] = bortezomib single agent, high dose 1.0 mg/kg
[8] = huN901-DM1 200 μg/kg, lenalidomide 100 mg/kg

Molecule: CC(C)C[C@H](NC(=O)[C@H](Cc1ccccc1)NC(=O)c1cnccn1)B(O)O [bortezomib]
- tumor-free mice at day 91 ([1]; bortezomib single agent 1 mg/kg i.v. days 13 and 16): no tumor-free mice
- T/C [2, 7]: 11%
- activity [2, 7]: active
- tumor-free mice at day 119 [2, 7]: 1 of 6
- activity according to NCI standards [2]: inactive

Molecule: O=C1CCC(N2C(=O)c3ccccc3C2=O)C(=O)N1 (stereo not shown) [thalidomide, reference compound]
- activity according to NCI standards [3]: inactive

Molecule: N[C@@H](Cc1ccc(N(CCCl)CCCl)cc1)C(=O)O [melphalan, reference compound]
- tumor growth delay [4]: 14 days

Molecule: Nc1cccc2c1CN(C1CCC(=O)NC1=O)C2=O (stereo not shown) [lenalidomide, reference compound]
- LCK [5]: 0.9
- T/C [5]: 28%

B1: huN901-DM1: humanized antibody N901-maytansinoid conjugate (huN901-DM1); N901 binds to CD56 (conjugate, chains of the INN, looked up)
VH: QVQLVESGGGVVQPGRSLRLSCAASGFTFSSFGMHWVRQAPGKGLEWVAYISSGSFTIYYADSVKGRFTISRDNSKNTLYLQMNSLRAEDTAVYYCARMRKGYAMDYWGQGTLVTVSS
VL: DVVMTQSPLSLPVTLGQPASISCRSSQIIIHSDGNTYLEWFQQRPGQSPRRLIYKVSNRFSGVPDRFSGSGSGTDFTLKISRVEAEDVGVYYCFQGSHVPHTFGQGTKVEIK
modifications: DM1 maytansinoid conjugate
- tumor-free mice at day 91 ([1]; huN901-DM1 100 μg/kg i.v. day 12, alone or plus bortezomib 1 mg/kg i.v. days 13 and 16): 1 of 6
- tumor-free mice at day 91 ([1]; huN901-DM1 200 μg/kg i.v. day 12, alone or plus bortezomib 1 mg/kg i.v. days 13 and 16): 3 of 6
- activity according to NCI standards [2]: inactive
- tumor growth delay [4]: 11 days
- activity according to NCI standards [3]: inactive
- activity ([6]; MOLP-8 tumors, doses as in Example 7): active
- T/C ([6]; SCID mice, huN901-DM1 150 ng/kg, qw×2 i.v., lenalidomide 100 mg/kg i.p. days 1-5, 8-12, dexamethasone 1.5 mg/kg s.c. days 1 and 8): 33%
- LCK ([6]; SCID mice, huN901-DM1 150 μg/kg, qw×2 i.v., lenalidomide 100 mg/kg i.p. days 1-5, 8-12, dexamethasone 1.5 mg/kg s.c. days 1 and 8): 0.5
- regressions ([6]; huN901-DM1 alone or lenalidomide/dexamethasone groups): no regressions
- LCK [5]: 0.9
- T/C [5]: 26%
- activity [5, 8]: active
- tumor-free mice at the end of the study [5, 8]: no tumor-free survivors
